In assay [1] the target is T1, human ActRIIB (human, UniProt Q13705 19-137, limits assumed).
T1 construct: antigen in MSD-SET; also called ACVR2B; ActR2B
T1 sequence: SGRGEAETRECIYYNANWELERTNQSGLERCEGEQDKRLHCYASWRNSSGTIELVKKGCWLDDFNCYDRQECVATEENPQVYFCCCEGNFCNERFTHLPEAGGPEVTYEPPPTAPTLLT
The experiment in a line: MSD-SET, preliminary.

Assay [2] concerns the target T2, human ActRIIA (human, UniProt P27037 20-135, limits assumed).
T2 construct: antigen in MSD-SET; also called ACVR2A; ActR2A
The experiment in a line: MSD-SET, preliminary.

Assay [3] concerns the target T1, human ActRIIB. The experiment in a line: MSD-SET.
The target in assay [4] is T2, human ActRIIA. The assay is described as follows: MSD-SET.
Assay [5] addresses T1, human ActRIIB. The assay is described as follows: MSD-SET. The source holds these as a separate data set.
Assay [6] has as its target T2, human ActRIIA. The experiment in a line: MSD-SET. This is another data set of the same source.
The target of assay [7] is T3, ActRIIA and ActRIIB (on TGFB/SMAD SBE Reporter HEK293 cells) (human). The experiment in a line: cell-based or functional assay.
Assay [8] has as its target T1, human ActRIIB. The experiment in a line: affinity measurement.
The target in assay [9] is T3, ActRIIA and ActRIIB (on TGFB/SMAD SBE …). The experiment in a line: cell-based or functional assay. The source holds these as a separate data set.
Assay [10] has as its target T1, human ActRIIB. The assay is described as follows: MSD-SET. The source holds these as a separate data set.
The target in assay [11] is T2, human ActRIIA. The experiment in a line: MSD-SET. This is another data set of the same source.
The target of assay [12] is T3, ActRIIA and ActRIIB (on TGFB/SMAD SBE …). The experiment in a line: cell-based or functional assay. The source holds these as a separate data set.
For assay [13], the target named is T1, human ActRIIB. The assay is described as follows: MSD-SET. The source holds these as a separate data set.
Assay [14] concerns the target T2, human ActRIIA. The assay is described as follows: MSD-SET. The source holds these as a separate data set.
The target of assay [15] is T1, human ActRIIB. The experiment in a line: MSD-SET. The source holds these as a separate data set.
Assay [16] has as its target T2, human ActRIIA. The experiment in a line: MSD-SET. The source holds these as a separate data set.

Changes are numbered by the printed parent chain. Where two headings read alike, the source gives them in different places.

T2 sequence (P27037 20-135 limits assumed): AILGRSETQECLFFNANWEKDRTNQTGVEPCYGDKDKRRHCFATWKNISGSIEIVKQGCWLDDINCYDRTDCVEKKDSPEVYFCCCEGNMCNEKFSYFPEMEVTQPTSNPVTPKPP

B1: Antibody Bebballesgmias (antibody, V domains shown)
VH: QVQLVQSGAEVKKPGSSVKVSCKASGYKFTSSYINWVRQAPGQGLEWMGTINPVSGSTSYAQKFQGRVTITADTSTSTAYMELSSLRSEDTAVYYCARGGWFDYWGQGTLVTVSS
VL: QSALTQPRSVSGSPGQSVTISCTGTSSDVGSYNYVNWYQQHPGKAPKLMIYGVSKRPRGVPDRFSGSKSGNTASLTISGLQAEDEADYYCGTFAGGSYYGVFGGGTKLTVL
notes: full-length IgG
Turning to B1, the equilibrium dissociation constant (Kd) (usually a measure of binding affinity in units of concentration) with human ActRIIB [1] was 0.0167 nM; with human ActRIIA [2], 0.142 nM; with human ActRIIB [3] it was 0.0167 nM; with human ActRIIA [4] it was 0.142 nM; in the assay with human ActRIIB [5] it was 0.0013 nM; with human ActRIIA [6], 0.067 nM. Also, the IC50, Activin SMAD RGA in assay [7] came out at 0.171 nM. Besides, the IC50, Myostatin SMAD RGA in assay [7] stood at 0.181 nM. This molecule yielded an IC50, myostatin inhibition (SMAD RGA) in [7] of 0.171 nM. In assay [7], this molecule gave an IC90, Activin SMAD RGA of 2.88 nM. The molecule also displayed an IC90, Myostatin SMAD RGA in [7] of 1.94 nM.

B2: Antibody Backstoikäs (antibody, V domains shown)
VH: B1 VH with S16A, I70M, A72R, T76I, S85R, E89D
VL: B1 VL with R8A, V18I, P61S, D62N
notes: full-length IgG
In the case of B2, the binding result with human ActRIIB [8] is on record as “binds”. In [7], this molecule had an IC50, Activin SMAD RGA of 0.18 nM; an IC50, Myostatin SMAD RGA of 0.0875 nM; an IC90, Activin SMAD RGA of 3.71 nM; an IC90, Myostatin SMAD RGA of 1.23 nM.

B3: Antibody Schwardamaga (antibody, V domains shown)
VH: B1 VH with K28T, P53A
VL: B1 VL with Y32A, L48P, K55R, R58S, S97K
notes: full-length IgG
With B3, in assay [9], the IC50, Activin SMAD RGA came to 0.46 nM; the IC50 fold difference to bimagrumab, Activin SMAD RGA is 0.7 fold; the IC90, Activin SMAD RGA amounted to 5.09 nM; the IC90 fold difference to bimagrumab, Activin SMAD RGA was 0.8 fold. Also, in [9], the IC95, Activin SMAD RGA amounted to 12.8 nM; the IC95 fold difference to bimagrumab, Activin SMAD RGA worked out at 39.3 fold; the IC99, Activin SMAD RGA stood at 99 nM; the IC99 fold difference to bimagrumab, Activin SMAD RGA is 305 fold. In addition, in the assay with human ActRIIB [1], the affinity, expressed as Kd, was 0.0293 nM. In the assay with human ActRIIB [3], this molecule registered a Kd of 0.0129 nM. The molecule also gave a Kd with human ActRIIA [4] of 0.0404 nM. The Kd with human ActRIIB [10] is 0.0129 nM. For the same molecule, binding with human ActRIIA [11] was characterised by a dissociation constant (Kd) of 0.0404 nM. For the same molecule, in assay [7], the IC50, Myostatin SMAD RGA was determined as 0.75 nM; the IC50 fold difference to bimagrumab, Myostatin SMAD RGA amounted to 0.7 fold; the IC90, Activin SMAD RGA worked out at 5.34 nM; the IC90, Myostatin SMAD RGA was 14.7 nM. In assay [7], the IC90 fold difference to bimagrumab, Activin SMAD RGA was 1.8 fold; the IC90 fold difference to bimagrumab, Myostatin SMAD RGA was found to be 0.9 fold; the IC95, Activin SMAD RGA worked out at 14.2 nM; the IC95, Myostatin SMAD RGA is 41.5 nM. In [7], the IC95 fold difference to bimagrumab, Activin SMAD RGA is 2.7 fold; the IC95 fold difference to bimagrumab, Myostatin SMAD RGA was 1.3 fold; the IC99, Activin SMAD RGA came out at 124 nM; the IC99, Myostatin SMAD RGA is 425 nM. In [7], this molecule showed an IC99 fold difference to bimagrumab, Activin SMAD RGA of 6.7 fold and an IC99 fold difference to bimagrumab, Myostatin SMAD RGA of 6.3 fold.

B4: Antibody Ochsamaulsalat (antibody, V domains shown)
VH: B1 VH with S16A, K28T, P53A, I70M, A72R, T76I, S85R, E89D
VL: B1 VL with R8A, V18I, Y32R, P57E, R58S, P61S, D62N, S97D
notes: full-length IgG
Take B4: in assay [12], the IC50, Activin SMAD RGA was determined as 0.43 nM. In addition, the IC50, Myostatin SMAD RGA in assay [12] came to 0.55 nM; in [7], 0.653 nM. For the same molecule, the Kd worked out at 0.01 nM with human ActRIIB [13]; 0.02 nM in the assay with human ActRIIA [14]; 0.0082 nM with human ActRIIB [5]; 0.0232 nM in the assay with human ActRIIA [6]; 0.01 nM with human ActRIIB [15]; 0.02 nM with human ActRIIA [16]. This molecule yielded an IC90, Activin SMAD RGA in assay [7] of 2.51 nM. In addition, in [7], the IC90, Myostatin SMAD RGA amounted to 5.59 nM.

B5: Antibody Soidawürstle (antibody, V domains shown)
VH: B1 VH with K12R, K28T
VL: B1 VL with Y34R, P57E, R58S, S97R
notes: full-length IgG; also called Soidawüsrstel
Regarding B5, in [9], the IC50, Activin SMAD RGA is 0.16 nM; the IC50 fold difference to bimagrumab, Activin SMAD RGA was found to be 2 fold; the IC90, Activin SMAD RGA worked out at 1.81 nM; the IC90 fold difference to bimagrumab, Activin SMAD RGA turned out to be 0.3 fold. For the same molecule, in [9], the IC95, Activin SMAD RGA is 4.84 nM; the IC95 fold difference to bimagrumab, Activin SMAD RGA was 14.9 fold; the IC99, Activin SMAD RGA came to 19.3 nM; the IC99 fold difference to bimagrumab, Activin SMAD RGA stood at 59.5 fold. In the assay with human ActRIIB [1], binding was characterised by a dissociation constant (Kd) of 0.0508 nM. The Kd with human ActRIIA [2] amounted to 0.0345 nM. The molecule further registered a Kd with human ActRIIB [3] of 0.0055 nM. Binding with human ActRIIA [4] was characterised by a dissociation constant (Kd) of 0.0342 nM. In the assay with human ActRIIB [10], this molecule showed a Kd of 0.0055 nM. In the assay with human ActRIIA [11], this molecule registered a Kd of 0.0342 nM. Moreover, in assay [7], the IC50, Myostatin SMAD RGA stood at 0.13 nM; the IC50 fold difference to bimagrumab, Myostatin SMAD RGA is 4.3 fold; the IC90, Activin SMAD RGA was 2.16 nM; the IC90, Myostatin SMAD RGA worked out at 6.63 nM. Besides, in assay [7], the IC90 fold difference to bimagrumab, Activin SMAD RGA was determined as 4.3 fold; the IC90 fold difference to bimagrumab, Myostatin SMAD RGA was found to be 2 fold; the IC95, Activin SMAD RGA amounted to 8.86 nM; the IC95, Myostatin SMAD RGA was 35 nM. In [7], this molecule registered an IC95 fold difference to bimagrumab, Activin SMAD RGA of 4.3 fold; an IC95 fold difference to bimagrumab, Myostatin SMAD RGA of 1.6 fold; an IC99, Activin SMAD RGA of 200 nM; an IC99, Myostatin SMAD RGA of 2000 nM. In addition, in [7], the IC99 fold difference to bimagrumab, Activin SMAD RGA was found to be 4.1 fold and the IC99 fold difference to bimagrumab, Myostatin SMAD RGA is 1.3 fold.

The values above are taken from patent US20250243286A1 (SIXPEAKS BIO, published 2025).
